In the supplement of paper PMC7877785:
± gives the uncertainty stated by the source.

Experiment: self-splicing fitness, log relative to wild type (ln ratio); higher = more splicing; Tetrahymena group I intron in knt gene, E. coli kanamycin selection, DiMSum; sequences stand for … in CUCUCU…GGAGGGAAAAGUUAUCAGGCAUGCACCUGGUAGCUAGUCUUUAAACCAAUAGAUUGCAUCGGUUUAAAAGGCAAGACCGUCAAAUUGCGGGAAAGGGGUCAACAGCCGUUCAGUACCAAGUCUCAGGGGAAACUUUGAGAUGGCCUUGCAAAGGGUAUGGUAAUAAGCUGACGGACAUGGUCCUAACCACGCAGCCAAGUCCUAAGUCAACAGAUCUUCUGUUGAUAUGGAUGCAGUUCACAGACUAAAUGUCGGUCGGGGAAGAUGUAUUCUUCUCAUAAGAUAUAGUCGGACCUCUCCUUAAUGGGAGCUAGCGGAUGAAGUGAUGCAACACUGGAGCCGCUGGGAACUAAUUUGUAUGCGAAAGUAUAUUGAUUAGUUUUGGAGUACUCGUGGUCG
Outline: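 Six replicate transformations of E. coli BL21(DE3) with a pET-22b(+) library were grown overnight at 37°C or 30°C. The library randomised all eight P1ex-region intron nucleotides, the intron lying in the knt kanamycin-resistance gene, and plates were LB agar with or without 25 μg/mL kanamycin plus 100 μg/mL carbenicillin, 50 μM IPTG and 0.2% rhamnose. Pooled colonies were amplicon-sequenced on an Illumina HiSeq 2500, and fitness is the DiMSum error-weighted combination of wild-type-normalised replicate fold changes, kanamycin versus none.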

| Sequence | self-splicing fitness (ln) (30 °C) | self-splicing fitness (ln) (37 °C) |
| --- | --- | --- |
| GGAAAGCAAUAUUACGAAUA | -2.36 ± 0.22 | -1.19 ± 0.19 |
| UGUAAGCAAUAUUACGUCGU | -3.66 ± 0.24 | -1.97 ± 0.18 |
| CCCCAGCAAUAUUACGGGCA | -2.57 ± 0.13 | -1.45 ± 0.11 |
| ACUUAGCAAUAUUACGAUCU | -0.0945 ± 0.076 | 0.51 ± 0.1 |
| ACAUAGCAAUAUUACGAUGU | -3.82 ± 0.16 | -2.19 ± 0.16 |
| UUACAGCAAUAUUACGGCUC | -1.76 ± 0.16 | -0.974 ± 0.16 |
| AGUCAGCAAUAUUACGGUCG | 0.451 ± 0.089 | 0.0344 ± 0.12 |
| CGUAAGCAAUAUUACGCAUU | -3.95 ± 0.28 | -2.68 ± 0.18 |
| GAUCAGCAAUAUUACGAUAA | 0.273 ± 0.069 | 0.106 ± 0.076 |
| ACCGAGCAAUAUUACGCCUA | – | -1.93 ± 0.28 |
| AUUCAGCAAUAUUACGGCUC | -0.786 ± 0.081 | -0.0849 ± 0.1 |
| UACAAGCAAUAUUACGAAGU | -4.09 ± 0.42 | -1.97 ± 0.24 |
| GGAGAGCAAUAUUACGAGUU | -4 ± 0.35 | – |
| UCGGAGCAAUAUUACGUGAA | -3.41 ± 0.39 | -1.63 ± 0.14 |
| UUAUAGCAAUAUUACGCGCA | -1.06 ± 0.19 | -0.728 ± 0.2 |
| UGGAAGCAAUAUUACGGUCG | -0.0238 ± 0.081 | 0.332 ± 0.11 |
| AACCAGCAAUAUUACGUGUU | -3.59 ± 0.11 | -2.47 ± 0.12 |
| GCCUAGCAAUAUUACGAAAG | -4.21 ± 0.24 | -1.07 ± 0.18 |
| ACUGAGCAAUAUUACGCUAU | -3.58 ± 0.15 | -2.42 ± 0.14 |
| AAUGAGCAAUAUUACGUCUC | -2.96 ± 0.23 | -2.19 ± 0.24 |
| CGCAAGCAAUAUUACGCGGG | -4.14 ± 0.42 | -2.31 ± 0.23 |
| CCAGAGCAAUAUUACGCCAG | -3.07 ± 0.25 | – |
| UACUAGCAAUAUUACGGUGG | -2.1 ± 0.09 | -1 ± 0.098 |
| AUCGAGCAAUAUUACGACAA | -2.78 ± 0.18 | -2.2 ± 0.18 |
| UUCUAGCAAUAUUACGUAAC | -3.19 ± 0.33 | -1.32 ± 0.27 |

| Sequence | self-splicing fitness (ln) (30 °C) | self-splicing fitness (ln) (37 °C) |
| --- | --- | --- |
| ACUAAGCAAUAUUACGAGUU | -3.56 ± 0.15 | -3.42 ± 0.25 |
| CUUAAGCAAUAUUACGCAAU | – | -2.62 ± 0.44 |
| UUGAAGCAAUAUUACGUCGU | -1.04 ± 0.074 | -0.397 ± 0.11 |
| CCAAAGCAAUAUUACGAAUU | -3.58 ± 0.15 | -3.46 ± 0.19 |
| AUAGAGCAAUAUUACGCUGU | -0.963 ± 0.11 | 0.0295 ± 0.14 |
| CCAUAGCAAUAUUACGUAAC | – | -2.7 ± 0.29 |
| UAGUAGCAAUAUUACGAGGG | -3.04 ± 0.42 | -2.03 ± 0.36 |
| GAGGAGCAAUAUUACGAGGC | -3.47 ± 0.47 | – |
| GCACAGCAAUAUUACGGUAC | -1.17 ± 0.096 | -0.285 ± 0.1 |
| UUUAAGCAAUAUUACGUAAA | -0.434 ± 0.1 | 0.519 ± 0.16 |
| UCCUAGCAAUAUUACGCAGC | – | -0.949 ± 0.4 |
| CAUGAGCAAUAUUACGGUAC | -2.67 ± 0.41 | -2.32 ± 0.34 |
| CACGAGCAAUAUUACGUCUC | -2.49 ± 0.27 | -3.63 ± 0.34 |
| UACAAGCAAUAUUACGCACG | -1.29 ± 0.094 | 0.0257 ± 0.1 |
| GAGAAGCAAUAUUACGACCC | -1.83 ± 0.38 | – |
| AUUAAGCAAUAUUACGUUCA | -0.728 ± 0.092 | -0.399 ± 0.12 |
| UACCAGCAAUAUUACGUCGA | -0.651 ± 0.073 | -0.0658 ± 0.085 |
| CCCCAGCAAUAUUACGAUUG | -3.58 ± 0.11 | -2.72 ± 0.14 |
| CCGUAGCAAUAUUACGCUGC | -2.07 ± 0.47 | -1.49 ± 0.45 |
| UCCGAGCAAUAUUACGAGGA | -3.04 ± 0.25 | -2.5 ± 0.29 |
| UGGUAGCAAUAUUACGACAG | -0.598 ± 0.3 | -0.713 ± 0.38 |
| GUGAAGCAAUAUUACGAUUA | 0.198 ± 0.084 | -0.124 ± 0.13 |
| AUGCAGCAAUAUUACGAAAU | -2.02 ± 0.13 | -0.358 ± 0.11 |
| CAACAGCAAUAUUACGAAGA | -2.55 ± 0.17 | -2.35 ± 0.17 |
| GCUAAGCAAUAUUACGCAAG | – | -1.46 ± 0.28 |
